Measured values published in the DeepSol protein solubility set.

test: soluble on expression in E. coli; label from the status in PepcDB or PDB records

Row | Sequence | soluble on expression in E. coli
1 | VPLTVADIDRWNAQAVREVFHAASARAEVTFEASRQLAALSIFANSGGKTAEAAAHHNAGIRRDLDAHGNEALAVARAADRAADGIVKVQSELAALRHAAAAAELTIDALINRVVPIPGLRSTEAQWARTLAKQTELQAELDAIMAEANAVDEELASAVNMADGDAPIPADSGPPVGPEGLTPTQLASDANEERLREERARLQAHLERLQAEYDQLSVRAARDYHNGILDGDAVGRLAALTDELSAARGRLGELDAVDEALSRAPETYLTQLQIPEDPNQQVLAAVAVGNPDTAANVSVTVPGVGSTTRGALPGMVTEARDLRSEVIRQLNAAGKPASVATIAWMGYHPPPNPLDTGSAGDLWQTMTDGQAHAGAADLSRYLQQVRANNPSGHLTVLGHSYGSLTASLALQDLDAQSAHPVNDVVFYGSPGLELYSPAQLGLDHGHAYVMQAPHDLITNLVAPLAPLHGWGLDPYLTPGFTELSSQAGFDPGGIWRDGVYAHGDYPRSFLDAAGQPQLRMSGYNLAAIAAGLPDNTVGPPLLPPILGGGMPAAPGPALRGGR | not soluble
2 | MGSDKIHHHHHHMTKHMTMKTPPIVSRQEWDAAREKMLVKEKATLRAKDALAAERRRMPWMEVDKAYVFEGPNGKASLLDLFEGRRQLIVYRAFFEPGVYGWPDHACRGCSLGADQVGHLAHLNARNTTLAYASRAPQADIVRLKARMGWEMPWYTITDSFDKDFGVDEWHGHNVFIHDGDRVFRTYLINSRGDEQMGTVWSYLDATPLGRQEIWEDSPEGYPQTPLYSWWNWHDNYEAGADKKWAEVAAAGEAAFRDKGE | not soluble
3 | MSESLTWHDVIGNEKQQAYFQQTLQFVESQRQAGKVIYPPAKDVFNAFRFTEFGDVKVVILGQDPYHGPNQAHGLCFSVLPGVKTPPSLVNIYKELAQDIPGFQIPPHGYLQSWAQQGVLLLNTVLTVEQGMAHSHANTGWETFTDRVIDALNQHRNGLIFLLWGSHAQKKGQMIDRQRHHVLMAPHPSPLSAHRGFLGCRHFSKTNQLLQAQGIAPINWQPELES | soluble
4 | MKNNAIGSNWKDVRAELFSKEEILESDMRVAIMSELIEARNEKGISQKKLEEMSGVSQPVIARMETGKTSPQLDTVLKVLASLGKTLAVVPLEHEQV | not soluble
5 | MGSDKIHHHHHHLKQLLLDIQPPAAPSLDNFVTGRNAEALFQLRRTVLEHDDARFIYLWGETGCGKTHLIQACNALASASGLDMICVDDVHLLSNDDQVALFDLYNQLRESGGRLIVSGLAAPSQMGLRDDLATRLAWGLSYQLHPLSDEEKTQALKNHAEARGMKLPDEVLDYCLRHLRRDMPSLIATIDALDEWSLISKRAVTLPLLKQLLQTST | not soluble
6 | MGSDKIHHHHHHMLTSGLYQSKNQCCGCELCSCVCPKNLIRMQPDDEGFLYPYIETDEGCVHCNKCIKICPMKSSNRNDIVLKASFGGQTRDIDGTRYSSSGGYATAISKQFILEKGVVVGVRYSSDFSKSEYAIAETIEELEQFRTSKYIQAEKGGIYQTIRNIKRKKILFIGLPCEVSALYNYWGRNTDNLYSISLVCHGPTTPKVQNLFASKLKENNNSQIKYFSVRYKESGWKPYYIYADFENGKHHQELFKGSSYEIAFQYLKRPSCSSCRYKLGDQEFGLVSDLTLGDFHAVEKNMLQYSPWGGVSQASVQSEKGEYLIDLARRQCNVEFIPEKYITKYNYAFHHPVAQKTGRESFKRILLREGLDCAAKSLLVQIPTCYINAKRRIISFLYNVKSYLISK | not soluble
7 | MEHKLEDIIAIFNQCFEEEYNTRLVKGGDEPIYLPANDEVPYNAIYFARGFYSSALHEIAHWLVAGKERRKLEDFGYWYEPDGRSEERQRDFEKVEVKPQALEWILATAAGFRYFASADNLNGNPGDTQPFKQAVYEQVKIYAEKGLPKRAETLRKALVAFYSTEDDINLAKFDVTCI | not soluble
8 | MSLRDEQEIYNLVLNIANQDKRIEAVLLNGSRANPNVPKDDFQDYDIVFVTNFIEDIISDTNYHKKFGDILIMQKPNEFRNKTEYNCFAYLMQFQDLTRIDLRLIKPEFLEDYLDDAFSKVLLDKKNKYLDYNFERSSLYETKQLSEDEINKILNEIYWVSTYVVKGIARNDIIYSEFMISNPIKNAFIKLLKQKILIEKELDSLSFGKLDKDILQYITDKDQLLKIFSNKSLKDIEANLRFLLDETNQMAKYISINRKLNLNQGEYQSAMKFMNIFLSNSYQNFNEGHHHHHH | soluble
9 | GPGSMVGPYNSKAGVVLVCDIFGLLPNSKRFADVLAEHGFLVAMPDFFGPLAWPESEWPADFQSMRWLQYVEKITQFDAFVPQMEAAIAVLRQMGCAKVGAIGMCWGAALPFMMAAQGKIDAAAAAHPSFFTADAVRAAKTPVLVLPSKDEPPMDDVEAAVNSHPMEPHVHKRFDALHHGFFGARYNPDAYTAEELKDVETARQLVLDFFKKSLH | not soluble
10 | MNTFVFLPLAFFVLLESFEAQEPPGPTARLNMLDNYMKRLNLTDIHFSDPGGIVKVDTVVNKYQPLTEEEIIRKMKKTVNDTAYDIANGKDPDLIEKLDKKTVQLPKPIRSRPQF | not soluble
11 | MSLKPVIGITGNRLVKGVDVFYGHRVTYTQQRYVDAIQKVGGFPIALPIDDPSTAVQAISLVDGLLLTGGQDITPQLYLEEPSQEIGAYFPPRDSYEIALVRAALDAGKPIFAICRGMQLVNVALGGTLYQDISQVETKALQHLQRVDEQLGSHTIDIEPTSELAKHHPNKKLVNSLHHQFIKKLAPSFKVTARTADGMIEAVEGDNLPSWYLGVQWHPELMFQTDPESEQLFQALVDESKKTMVKEGHHHHHH | soluble
12 | MGSDKIHHHHHHQPIPDMAKAQTAALNSITAADLSAYLHIVASDSMEGRATGEAGQKRTALYLADKFKEFGLSPAVPTAVDKSYFQKFSLVEKTWKEVWLKVGNKQKEFLKDFYAYGDVQLPEATAMKIVCAGYGIEARNYSDYTNLDVKDKGVIIFTGEPFKDSVSLVTKTKQSSTWANDWRAKADLAYKKGAKAVFIIVGNTDTDFETRLAALKDHLNAPSMAFTHKKKASAFFVPASLAAEMLKSTPDALASYKKNRTGTNTPYPFKSAKVIAKAGVTERTVETENVLAVIEGSRYPEEIVVLTAHYDHLGIENGQICYGADDDGSGTVALLEIAQAFSIAKSLGHGPARTILFMPVTGEERGLMGSEYYTDKPVFPLKNTVADLNIDMIGRVDAAHPNVIDENYVYIIGDNRLSSELHTLSENANTGWQGPKIVLDYTYNSFDDPNRFYYRSDHYNFAKNNIPVIFYFSGIHADYHKPTDTVDKIRFDKMAKITQLVFLTAWQLANMDHRLVVDRTE | not soluble
13 | STLQPRCEDVETAEGVALTVTGVAQVKIMTEKELLAVACEQFLGKNVQDIKNVVLQTLEGHLRSILGTLTVEQIYQDRDQFAKLVREVAAPDVGRMGIEILSFTIKDVYDKVDYLSSLGKTQTAVVQRDADIGVAEAERDAGIREAECKKEMLDVKFMADTKIADSKRAFELQKSAFSEEVNIKTAEAQLAYELQGAREQQKIRQEEIEIEVVQRKKQIAVEAQEILRTDKELIATVRRPAEAEAHRIQQIAEGEKVKQVLLAQAEAEKIRKIGEAEAAVIEAMGKAEAERMKLKAEAYQKYGDAAKMALVLEALPQIAAKIAAPLTKVDEIVVLSGDNSKVTSEVNRLLAELPASVHALTGVDLSKIPLIKKATGVQV | not soluble
14 | IVSFYQEQIIRSALALKLHQYEDTGGIIAAGTTSLPESDGATRNWDYRYCWMRDTYYTLQAFNTIGHFEESEKYFHYIENIVANELDRIQPLYTLDCSKKIEEIELDLEGYKGNKPVRVGNDAYTHIQNDVYGQILASITPLFTDRRLLHGNQFSTDIVYKLLAFIDKTMNEKDAGLWEFRHLKQLHCYTFLFHWVGAKSALKIGQLYGDHELIRKSTATIDKAAEMIERCYDPVRKVYTQAVGSTYLDASCIQLISMHYLDPSSEKARLHLKAIEEDLMVKDGLLFRYKHEDDFGKPEVTFLVCAFWYVDALASVGRIDDAIKAFESLLTYTNHVGLLSEDVGLDGSQWGNFPQTYSHVGLMNSAYRIAKKLDRPS | not soluble
15 | MSLFIDKQTVERHFSKSAHLYDGVNHVQRKMAHRLVQLLDEKRRDAKDEPRAILDIGCGTGWLTRECLKSFPQATIDAVDLSKQMLEVAEKNVSSHPNVQFIQGDIEKMVREKPSAKTYDVIVANAVFQWLDKPTETVAQLRSWLKPNGLLLFSTFGPDTFYELHDSFQLAAKQLGIIDERRGLDYLSKTEWKRTLDGLFAELTIHEEKAIESYATVEQFLHTVKKMGATYSQSSRPLSKRYYQLMKEIYEQRYRTEDSIPATYDCLYVLCQAEGHHHHHH | soluble
16 | MGSDKIHHHHHHAKPVTSETMAAKTVGLQIYSLGKELYADVPGGLKKIKQMGYTNLELAGYKEGKIGGVDMMEFKKMVDDAGLKITSSHVNPPVREYTKANRSQISEYWKKTADDHAKLGVKYLIQPGQPSTRSTEETAFVCEIFNEAGKIVKAAGIPFGYHNHEMEFAKVNPGSTEAKLGRRVKGDCIYELFLKNTDPSLVFFEMDVYWAVMGQQDPIEWLKKYPNRIKVLHIKDRAILGESGMMNFENIFRQAYANGIKDYFVELEGMPDGRSQFEGVKGCVDYLLKAPFVK | not soluble
17 | MAIKSVLFLRSNPVAPDPRVAKEAQALADAGYKVGVVAWDRTGELPKVEETPFGLVERLPIKGSFRSGLANLLPLVRFNLALLWHLIKRRSTYDAIHACDFDTVLPALVAAKLLGKKVVYDVFDFYADMLRATPGWIKSIIKKVDLRLMGWVDAVILADESRVKQIQGARPKRLTFIYNSPPIEDPFPLPPAPPPLRIAYVGLLQKERGILQVIELLRRHPEWELDLGGFGGDEEEIRRAVADLPNVRYHGRVPYEKALELMSNAHLLFATYDPSIPNHRYSSANKLFEAMAIGRPIVVARDTGMDQLVQQYALGFVVEYGNLAALEDAFARVASWDLQRFEEFSQKAQEVYVTRFAWRIMKERLIALYRKLEE | soluble
18 | MATVQVDIVTPERKVFQGEADIVIARGVEGELGVMAGHIPLVTPLKTAPVRIKQGDKETLIAVSGGFLEVRPDKVNILADTAELPEEIDVERAKKAKARHETILKRLDKTDKDYLRHKRALERAEVRLQVANSKS | soluble
19 | MAIDLAEVTGAKAAQERKKEQPTIANGLDKNAFMKLFLEQLKNQDPTAPMETDKIITQTAQLTQVEMQEENKKTMQEVASAMKSNKETNESLKDFQGALKDTMENLNKGMDDSLKANNALREVTALNSVSMIGKIAETDVSGANFDGNNKLSFSLFFDEKIDASKGVPAIQILNENNELVKTIPLKDYNGQKGYINFEWDGTNEKGEKVPKGNYKIKAEYNLDSHSKQYLQTRIGRGEVESVIFDKGKPMLRMGEMVLPIDSAIEFYQPDQKPLEQKLSDQKPIDQKPLDQKPQTPPKETA | not soluble
20 | MGSDKIHHHHHHMRNMNIEEIRNSFLSGRPAVLIDEERENEADLVFPAEIATPKVVNFMLSAKGLLCLALDMEEGIKRGFFKLPNNGGETNFLIPVDYKDVFTGITAEERALTARKVAEGLGIENFRYPGHLPLLGGLGLNKRKGHTEASLELVEMAGFKRYALIIEILDDKGYSHNLDYAFHFAKEHDLPLIRIREIWKEFVRRKQLIHVYSKAKLPTKYGDFEIYSFKNDLDFKDHVALVKKPFKGTPLVRVHSKCLTGDTLGSLKCDCGSQLENALRTISQEGGVLIYLDQEGRGIGLREKIRAYEFQDRGLDTVEANKALGFAPDERTYEVAFQILRALGIEKIKLLTNNPSKVKALRELGIEIEDVIPLPGEINRYNFFYLKTKVEKLGHKIPGVEV | not soluble
21 | MGSDKIHHHHHHMILKYAPLNLDQKFSLVYFRMTHDNCWSKITEKHDVMIHTLKLLPNKDRDIIYGLFELKVKGKRTLRDFLRDLNRSGTIRKLGGLSISELKSNIYIIDLYETYSGMIQGKLNDYNSIFDFDLVKYGVEEKYAVIPSENVNELKNELQSMGQLFDFRAKYFPNFYEVLTPYFNFTPIEMQIIIEAYNLGYYDIPRRAGIREIAEYFGLSKSTVQEYIRNAESKTMSNMKLFRMLNELKRL | not soluble
22 | KTDPRSMNSRVFIGNLNTLVVKKSDVEAIFSKYGKIVGCSVHKGFAFVQYVNERNARAAVAGEDGRMIAGQVLDINLAAEPKVNR | soluble
